This note sets out measurements from IntAct's records for PubMed 22153509.

Sequences and labels used below:
B1: Interleukin-5 receptor subunit alpha (Homo sapiens), Q01344-2 (parent)
chain: MIIVAHVLLILLGATEILQADLLPDEKISLLPPVNFTIKVTGLAQVLLQWKPNPDQEQRNVNLEYQVKINAPKEDDYETRITESKCVTILHKGFSASVRTILQNDHSLLASSWASAELHAPPGSPGTSIVNLTCTTNTTEDNYSRLRSYQVSLHCTWLVGTDAPEDTQYFLYYRYGSWTEECQEYSKDTLGRNIACWFPRTFILSKGRDWLAVLVNGSSKHSAIRPFDQLFALHAIDQINPPLNVTAEIEGTRLSIQWEKPVSAFPIHCFDYEVKIHNTRNGYLQIEKLMTNAFISIIDDLSKYDVQVRAAVSSMCREAGLWSEWSQPIYVGFSR

Variants of B1 are the subject of the assay. The conditions noted are these: with il5_human IL5, P05113.
il5_human IL5, P05113, sequence (P05113 whole entry): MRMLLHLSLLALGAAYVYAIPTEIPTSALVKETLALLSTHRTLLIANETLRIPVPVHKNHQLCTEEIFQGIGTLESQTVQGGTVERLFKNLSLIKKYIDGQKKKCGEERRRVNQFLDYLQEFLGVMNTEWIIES
Regarding M315A, the “effect of a mutation on the interaction” value is listed as “decreasing interaction”.
For D228A, the “effect of a mutation on the interaction” value is given as “disrupting interaction”.
The same measure for R208K: “decreasing interaction”.
